This series relates to CC(C)(O)[C@@H](O)C(=O)O. The series is described as follows: purified protein. The class given is biochemical, Synechocystis sp. PCC 6803. To be noted: aerobic.

The text below walks through data of publication PMC8162731.

For “SnDHAD (Synechocystis sp. PCC 6803 substr. Kazusa)”, the Km (as-purified enzyme 0.05 μM, pH 8.0, 50 °C) is 136.3 ± 9.0 µM.

With “SnDHAD (Synechocystis sp. PCC 6803 substr. Kazusa; Y477H)”, the Michaelis constant (Km) (as-purified enzyme) came to 108.9 ± 10.7 µM.
